{"source": "the supplement of paper PMC10724198", "note": "± gives the standard deviation of the averaged measurements.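 Further: PSI is a weighted mean of sequencing reads over stability bins, variants kept only with over 10 reads, mCherry proximal and sfGFP distal, peptide attached via GGGS linker.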"}
{"test_system": "Saccharomyces cerevisiae", "experiment": "protein stability index of tFT-peptide fusion (C-terminal peptide) (PSI (0-1 scale)); higher = more stable (slower turnover)", "conditions": "genetic background: wild type; temperature: 30 C"}
{"sequence": "SFVFLVRRWLFV", "protein stability index": "0.213 ± 0.025"}
{"sequence": "SFYVCVPVLWLV", "protein stability index": "0.201 ± 0.0038"}
{"sequence": "SGRAWRLRMHVI", "protein stability index": "0.406 ± 0.17"}
{"sequence": "SGRFRAFVLRSM", "protein stability index": "0.476 ± 0.0099"}
{"sequence": "SGRFRFVLLGLV", "protein stability index": "0.203 ± 0.021"}
{"sequence": "SGVVWFYIFCLS", "protein stability index": "0.361 ± 0.011"}
{"sequence": "SINKLLILIKSI", "protein stability index": "0.13 ± 0.028"}
{"sequence": "SIWVGSRFRWVV", "protein stability index": "0.35 ± 0.062"}
{"sequence": "SLCELRCLLRVG", "protein stability index": "0.473 ± 0.021"}
{"sequence": "SLCSSVQVWSVV", "protein stability index": "0.693 ± 0.027"}
{"sequence": "SLLFPLPRPLLD", "protein stability index": "0.731 ± 0.016"}
{"sequence": "SLRSRSLRCRLS", "protein stability index": "0.38 ± 0.005"}
{"sequence": "SPCLPRGVLFLA", "protein stability index": "0.367 ± 0.0063"}
{"sequence": "SPCLSWTLVLVL", "protein stability index": "0.302 ± 0.037"}
{"sequence": "SRLMLPLSPLVC", "protein stability index": "0.379 ± 0.045"}
{"sequence": "SRPLYVMICTRV", "protein stability index": "0.386 ± 0.0086"}
{"sequence": "SRSYNSPSLYVC", "protein stability index": "0.147 ± 0.009"}
{"sequence": "SRVCVLTGISCA", "protein stability index": "0.473 ± 0.018"}
{"sequence": "SSLAKFQLISTY", "protein stability index": "0.394 ± 0.017"}
{"sequence": "SVFSFCLCVGVV", "protein stability index": "0.294 ± 0.066"}
{"sequence": "SVFWCFHVLFWS", "protein stability index": "0.39 ± 0.0011"}
{"sequence": "SVLCLFSRLRSV", "protein stability index": "0.354 ± 0.069"}
{"sequence": "SVPIAFYLLFFQ", "protein stability index": "0.464 ± 0.021"}
{"sequence": "SVSQTSILDSRL", "protein stability index": "0.71 ± 0.0074"}
{"sequence": "SVVRCWVLLGVA", "protein stability index": "0.276 ± 0.024"}
{"sequence": "SWELKWVYARVV", "protein stability index": "0.131 ± 0.005"}
{"sequence": "SYALGNVVGGSL", "protein stability index": "0.72 ± 0.013"}
{"sequence": "TCPFTIHRLKVG", "protein stability index": "0.238 ± 0.077"}
{"sequence": "TEHIIAFKASVN", "protein stability index": "0.214 ± 0.02"}
{"sequence": "TFRVLFSVALLV", "protein stability index": "0.212 ± 0.086"}
{"sequence": "TGRLFVSLRVWY", "protein stability index": "0.437 ± 0.038"}
{"sequence": "TLPIWLRVLIFG", "protein stability index": "0.404 ± 0.032"}
{"sequence": "TLRINSPFYFLS", "protein stability index": "0.419 ± 0.012"}
{"test_system": "Saccharomyces cerevisiae", "experiment": "protein stability index of tFT-peptide fusion (C-terminal peptide) (PSI (0-1 scale)); higher = more stable (slower turnover)", "conditions": "genetic background: cdc34-1; temperature: 37 C", "method": "(§1)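 MPS profiling in S. cerevisiae of the tFT-X12 degron library: putative degron peptides plus stable controls, 12 aa, fused to the C-terminus of a sfGFP-mCherry timer. Cells are FACS-sorted into 8 mCherry/sfGFP bins and deep-sequenced. PSI runs from 0 (unstable) to 1 (stable). Backgrounds are wild type, das1Δ and doa10Δ at 30 °C, and wild type, das1Δ, cdc34-1 and cdc53-1 at 37 °C; 2-3 technical replicates each.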"}
{"sequence": "SFVFLVRRWLFV", "protein stability index": "0.354 ± 0.071"}
{"sequence": "SFYVCVPVLWLV", "protein stability index": "0.248 ± 0.024"}
{"sequence": "SGRAWRLRMHVI", "protein stability index": "0.663 ± 0.02"}
{"sequence": "SGRFRAFVLRSM", "protein stability index": "0.692 ± 0.012"}
{"sequence": "SGRFRFVLLGLV", "protein stability index": "0.558 ± 0.032"}
{"sequence": "SGVVWFYIFCLS", "protein stability index": "0.4729 ± 0.00067"}
{"sequence": "SINKLLILIKSI", "protein stability index": "0.429 ± 0.026"}
{"sequence": "SIWVGSRFRWVV", "protein stability index": "0.642 ± 0.0088"}
{"sequence": "SLCELRCLLRVG", "protein stability index": "0.573 ± 0.027"}
{"sequence": "SLCSSVQVWSVV", "protein stability index": "0.7 ± 0.049"}
{"sequence": "SLLFPLPRPLLD", "protein stability index": "0.7 ± 0.013"}
{"sequence": "SLRSRSLRCRLS", "protein stability index": "0.619 ± 0.056"}
{"sequence": "SPCLPRGVLFLA", "protein stability index": "0.603 ± 0.055"}
{"sequence": "SPCLSWTLVLVL", "protein stability index": "0.275 ± 0.013"}
{"sequence": "SRLMLPLSPLVC", "protein stability index": "0.41 ± 0.011"}
{"sequence": "SRPLYVMICTRV", "protein stability index": "0.4376 ± 0.00075"}
{"sequence": "SRSYNSPSLYVC", "protein stability index": "0.498 ± 0.061"}
{"sequence": "SRVCVLTGISCA", "protein stability index": "0.568 ± 0.011"}
{"sequence": "SSLAKFQLISTY", "protein stability index": "0.429 ± 0.0045"}
{"sequence": "SVFSFCLCVGVV", "protein stability index": "0.285 ± 0.0083"}
{"sequence": "SVFWCFHVLFWS", "protein stability index": "0.425 ± 0.039"}
{"sequence": "SVLCLFSRLRSV", "protein stability index": "0.625 ± 0.022"}
{"sequence": "SVPIAFYLLFFQ", "protein stability index": "0.557 ± 0.0081"}
{"sequence": "SVSQTSILDSRL", "protein stability index": "0.7109 ± 0.0043"}
{"sequence": "SVVRCWVLLGVA", "protein stability index": "0.121 ± 0.047"}
{"sequence": "SWELKWVYARVV", "protein stability index": "0.374 ± 0.0097"}
{"sequence": "SYALGNVVGGSL", "protein stability index": "0.675 ± 0.045"}
{"sequence": "TCPFTIHRLKVG", "protein stability index": "0.63 ± 0.01"}
{"sequence": "TEHIIAFKASVN", "protein stability index": "0.546 ± 0.0031"}
{"sequence": "TFRVLFSVALLV", "protein stability index": "0.172 ± 0.0042"}
{"sequence": "TGRLFVSLRVWY", "protein stability index": "0.321 ± 0.0046"}
{"sequence": "TLPIWLRVLIFG", "protein stability index": "0.341 ± 0.066"}
{"sequence": "TLRINSPFYFLS", "protein stability index": "0.694 ± 0.058"}
{"test_system": "Saccharomyces cerevisiae", "experiment": "protein stability index of tFT-peptide fusion (C-terminal peptide) (PSI (0-1 scale)); higher = more stable (slower turnover)", "conditions": "genetic background: cdc53-1; temperature: 37 C", "method": "as §1"}
{"sequence": "SFVFLVRRWLFV", "protein stability index": "0.582 ± 0.02"}
{"sequence": "SFYVCVPVLWLV", "protein stability index": "0.29 ± 0.036"}
{"sequence": "SGRAWRLRMHVI", "protein stability index": "0.749 ± 0.011"}
{"sequence": "SGRFRAFVLRSM", "protein stability index": "0.746 ± 0.01"}
{"sequence": "SGRFRFVLLGLV", "protein stability index": "0.601 ± 0.008"}
{"sequence": "SGVVWFYIFCLS", "protein stability index": "0.535 ± 0.0018"}
{"sequence": "SINKLLILIKSI", "protein stability index": "0.618 ± 0.028"}
{"sequence": "SIWVGSRFRWVV", "protein stability index": "0.7361 ± 0.0011"}
{"sequence": "SLCELRCLLRVG", "protein stability index": "0.636 ± 0.022"}
{"sequence": "SLCSSVQVWSVV", "protein stability index": "0.763 ± 0.024"}
{"sequence": "SLLFPLPRPLLD", "protein stability index": "0.754 ± 0.018"}
{"sequence": "SLRSRSLRCRLS", "protein stability index": "0.755 ± 0.024"}
{"sequence": "SPCLPRGVLFLA", "protein stability index": "0.7253 ± 0.004"}
{"sequence": "SPCLSWTLVLVL", "protein stability index": "0.324 ± 0.0061"}
{"sequence": "SRLMLPLSPLVC", "protein stability index": "0.455 ± 0.0065"}
{"sequence": "SRPLYVMICTRV", "protein stability index": "0.522 ± 0.035"}
{"sequence": "SRSYNSPSLYVC", "protein stability index": "0.6496 ± 0.0057"}
{"sequence": "SRVCVLTGISCA", "protein stability index": "0.606 ± 0.016"}
{"sequence": "SSLAKFQLISTY", "protein stability index": "0.464 ± 0.011"}
{"sequence": "SVFSFCLCVGVV", "protein stability index": "0.363 ± 0.076"}
{"sequence": "SVFWCFHVLFWS", "protein stability index": "0.4971 ± 0.0027"}
{"sequence": "SVLCLFSRLRSV", "protein stability index": "0.7308 ± 0.0022"}
{"sequence": "SVPIAFYLLFFQ", "protein stability index": "0.605 ± 0.027"}
{"sequence": "SVSQTSILDSRL", "protein stability index": "0.756 ± 0.022"}
{"sequence": "SVVRCWVLLGVA", "protein stability index": "0.157 ± 0.028"}
{"sequence": "SWELKWVYARVV", "protein stability index": "0.5602 ± 0.0046"}
{"sequence": "SYALGNVVGGSL", "protein stability index": "0.75 ± 0.015"}
{"sequence": "TCPFTIHRLKVG", "protein stability index": "0.7483 ± 0.0035"}
{"sequence": "TEHIIAFKASVN", "protein stability index": "0.7284 ± 0.0037"}
{"sequence": "TFRVLFSVALLV", "protein stability index": "0.216 ± 0.0069"}
{"sequence": "TGRLFVSLRVWY", "protein stability index": "0.375 ± 0.055"}
{"sequence": "TLPIWLRVLIFG", "protein stability index": "0.342 ± 0.038"}
{"sequence": "TLRINSPFYFLS", "protein stability index": "0.703 ± 0.02"}
{"test_system": "Saccharomyces cerevisiae", "experiment": "protein stability index of tFT-peptide fusion (C-terminal peptide) (PSI (0-1 scale)); higher = more stable (slower turnover)", "conditions": "genetic background: das1 deletion; temperature: 30 C", "method": "as §1"}
{"sequence": "SFVFLVRRWLFV", "protein stability index": "0.563 ± 0.011"}
{"sequence": "SFYVCVPVLWLV", "protein stability index": "0.27 ± 0.029"}
{"sequence": "SGRAWRLRMHVI", "protein stability index": "0.661 ± 0.037"}
{"sequence": "SGRFRAFVLRSM", "protein stability index": "0.646 ± 0.029"}
{"sequence": "SGRFRFVLLGLV", "protein stability index": "0.455 ± 0.03"}
{"sequence": "SGVVWFYIFCLS", "protein stability index": "0.322 ± 0.038"}
{"sequence": "SINKLLILIKSI", "protein stability index": "0.525 ± 0.03"}
{"sequence": "SIWVGSRFRWVV", "protein stability index": "0.665 ± 0.034"}
{"sequence": "SLCELRCLLRVG", "protein stability index": "0.522 ± 0.017"}
{"sequence": "SLCSSVQVWSVV", "protein stability index": "0.612 ± 0.013"}
{"sequence": "SLLFPLPRPLLD", "protein stability index": "0.677 ± 0.015"}
{"sequence": "SLRSRSLRCRLS", "protein stability index": "0.723 ± 0.0081"}
{"sequence": "SPCLPRGVLFLA", "protein stability index": "0.667 ± 0.031"}
{"sequence": "SPCLSWTLVLVL", "protein stability index": "0.215 ± 0.026"}
{"sequence": "SRLMLPLSPLVC", "protein stability index": "0.301 ± 0.045"}
{"sequence": "SRPLYVMICTRV", "protein stability index": "0.327 ± 0.024"}
{"sequence": "SRSYNSPSLYVC", "protein stability index": "0.605 ± 0.029"}
{"sequence": "SRVCVLTGISCA", "protein stability index": "0.416 ± 0.029"}
{"sequence": "SSLAKFQLISTY", "protein stability index": "0.316 ± 0.04"}
{"sequence": "SVFSFCLCVGVV", "protein stability index": "0.266 ± 0.028"}
{"sequence": "SVFWCFHVLFWS", "protein stability index": "0.395 ± 0.025"}
{"sequence": "SVLCLFSRLRSV", "protein stability index": "0.638 ± 0.015"}
{"sequence": "SVPIAFYLLFFQ", "protein stability index": "0.458 ± 0.021"}
{"sequence": "SVSQTSILDSRL", "protein stability index": "0.668 ± 0.012"}
{"sequence": "SVVRCWVLLGVA", "protein stability index": "0.198 ± 0.013"}
{"sequence": "SWELKWVYARVV", "protein stability index": "0.516 ± 0.02"}
{"sequence": "SYALGNVVGGSL", "protein stability index": "0.637 ± 0.018"}
{"sequence": "TCPFTIHRLKVG", "protein stability index": "0.617 ± 0.017"}
{"sequence": "TEHIIAFKASVN", "protein stability index": "0.626 ± 0.033"}
{"sequence": "TFRVLFSVALLV", "protein stability index": "0.259 ± 0.024"}
{"sequence": "TGRLFVSLRVWY", "protein stability index": "0.295 ± 0.035"}
{"sequence": "TLPIWLRVLIFG", "protein stability index": "0.295 ± 0.026"}
{"sequence": "TLRINSPFYFLS", "protein stability index": "0.654 ± 0.019"}
